Reference: article PMC6286129, “CryoEM structures of open dimers of gyrase A in complex with DNA illuminate mechanism of strand passage” (eLife, 2018)

How the values were obtained:
[1] = molecular target: the molecule itself; experiment: cryo-EM structure; Tetrahedral complex: GyrA-ΔCTD mixed with GyrB, 44 bp DNA, ciprofloxacin and novobiocin; purified on a glycerol/glutaraldehyde gradient (GraFix)
[2] = molecular target: the molecule itself; experiment: cryo-EM structure; Dihedral complex: GyrA-ΔCTD mixed with 44 bp DNA and ciprofloxacin, no GyrB; purified on a glycerol/glutaraldehyde gradient (GraFix); also a low resolution reconstruction without glutaraldehyde or antibiotics

B1: Streptococcus pneumoniae gyrase A subunit with truncated C-terminal domain (GyrA-ΔCTD, residues 1–487) (domain or fragment, UniProt P72524 1-487, looked up)
chain: MQDKNLVNVNLTKEMKASFIDYAMSVIVARALPDVRDGLKPVHRRILYGMNELGVTPDKPHKKSARITGDVMGKYHPHGDSSIYEAMVRMAQWWSYRYMLVDGHGNFGSMDGDSAAAQRYTEARMSKIALEMLRDINKNTVDFVDNYDANEREPLVLPARFPNLLVNGATGIAVGMATNIPPHNLGETIDAVKLVMDNPEVTTKDLMEVLPGPDFPTGALVMGKSGIHKAYETGKGSIVLRSRTEIETTKTGRERIVVTEFPYMVNKTKVHEHIVRLVQEKRIEGITAVRDESNREGVRFVIEVKRDASANVILNNLFKMTQMQTNFGFNMLAIQNGIPKILSLRQILDAYIEHQKEVVVRRTRFDKEKAEARAHILEGLLIALDHIDEVIRIIRASETDAEAQAELMSKFKLSERQSQAILDMRLRRLTGLERDKIQSEYDDLLALIADLADILAKPERVSQIIKDELDEVKRKFSDKRRTELMIG
notes: DNA gyrase subunit A, Streptococcus pneumoniae, gene cloned from the ATCC genome 700669DQ; residues 1-487 (C-terminal domain removed); The vector pMCSG7 adds 24 amino acids at the N-terminus, with a six amino acid His-tag and a TEV cleavage site; It forms open dimers that assemble around a 44 bp DNA into oligomers of four dimers (Dihedral complex) or six dimers (Tetrahedral complex); also called …
stoichiometry N [1]: 12 monomers
stoichiometry N [2]: 8 monomers
